Experimental data published in patent US8597660B2, “Therapeutic approach to neurodegenerative disorders using a TFP5-peptide” (The United States of America, as represented by the …, priority 2010, dated 2013).
Entries after “also recorded” stand apart in the source; their conditions may differ.

Assays:
[1] = target: T1, Cdk5/P35 (Rattus norvegicus, UniProt Q03114); test: Kinase assay of Cdk5 immunoprecipitates from cortical neurons, infected or endogenous Cdk5/P35; type: cell-based; details: cortical neurons infected only with P5, or uninfected treated with 20 μM roscovitine
T1 construct: endogenous in cells; host or cells: E-18 rat cortical neurons
Experimental: (§1) Briefly, 7 days in culture (7 DIC) primary rat cortical neurons were infected with P25, P35, Cdk5 wild-type, dominant negative-Cdk5 and P5 using the lentiviral gene delivery as described earlier. Cdk5 was immunoprecipitated using the polyclonal C8 antibody overnight at 4° C. and immunoglobulin isolated using Protein A sepharose beads for 2 hours at 4° C. Immunoprecipitates were washed three times with lysis buffer and then once with 1× kinase buffer containing 20 mM Tris-Cl pH 7.4, 1 mM EDTA, 1 mM EGTA, 10 mM MgCl2, 10 mM sodium fluoride and 1 mM sodium orthovanadate. Endogenous Cdks were immunoprecipitated from HEK 293 cells using their respective antibodies and treated as above. […] ATP with 20 μg of histone H1 as the substrate. Phosphorylation was performed in a final volume of […] incubated at 30° C. for 60 minutes, stopped by the addition of 10% SDS sample buffer and heating at 95° C. for 5 minutes. Samples were separated by SDS-PAGE, gels were stained with Coomassie, destained, dried and exposed to autoradiography. In pad assays, 25 μl aliquots of the incubation mixture were placed on a Whatman p80 paper square, washed and dried and placed in a scintillation vial for counting.

[2] = tested on: Cdk5/P35; test: as above; type: cell-based, rat; details: E-18 rat cortical neurons co-infected with P5
Experimental: as §1

[3] = tested on: cortical neurons; test: TUNEL assay of Aβ-induced apoptosis in cortical neurons; type: cell-based, rat; details: neurons transfected with GFP-P5, Aβ 6 h
Experimental: Primary cortical neuron cells were cultured for 5 days on glass coverslips coated with poly-L-lysine, and transfected with or without P5 using Lipofectamine 2000. After 24 hours, TUNEL staining was done according to the manufacturer's instructions. Cells were washed three times in PBS, fixed for 1 hour at room temperature in fresh 4% paraformaldehyde in PBS, and permeabilized (0.1% Triton X-100 in 0.1 sodium citrate) for 2 minutes on ice. After washing 2× with PBS, TUNEL reaction mixture (50 μl) was added and incubated in a humidified atmosphere at 37° C. for 1 hour. TUNEL staining and fluorescent images were visualized with a Zeiss LSM-510 laser-scanning confocal microscope. Images were processed and merged by Adobe Photoshop software.
To determine whether P5 inhibited neuronal apoptosis induced by Aβ, primary cortical neurons (5 days in culture (DIC)) were transfected with P5-GFP using Lipofectamine 2000. After 24 hours, cells were exposed to Aβ for 6 hours. The neurons were fixed and subjected to TUNEL staining, while P5 was visualized by (green fluorescent protein) GFP. […] The data are quantified in FIG. 5B. More than 85% of nontransfected neurons were apoptosis positive. […] Cortical neurons infected with or without P5 and treated with Aβ for 6 hours were assayed for cleaved caspase 3 by Western blot analysis (FIG. 5C). […]. […] The data are quantified in FIG. 5D.

[4] = target: Cdk5/P35 (Homo sapiens, UniProt Q00535); test: Cdk5/P35 kinase assay after pre-incubation with β-tubulin; type: biochemical
Experimental: Tubulin polymerization was performed as detailed in a previous report (Hou et al., J. Biol. Chem., 282(26), 18666-18670, 2007). Briefly, active kinase Cdk5/P35 (2 ng/μL) or active Cdk5/P25 (1 ng/μL) were incubated with β-tubulin (enzyme: tubulin at 1:100) in the PEM buffer (80 mM PIPES, 2 mM MgCl2, 1 mM EGTA PH 7.0) supplemented with 1 mM GTP at 35° C. for 45 minutes. Following the incubation, Cdk5 kinase assays were performed with or without the addition of 0.45 μM or 0.90 μM P5.
To further explore this possibility, β-tubulin (which is enriched in neurons) was used to perform a study in vitro to mimic P35 interactions in cells. Cdk5/P35 and Cdk5/P25 active kinases were pre-incubated with β-tubulin (Cdk5 kinase:tubulin=1:100) respectively at 35° C. for 45 minutes to 1 hour under conditions that would promote tubulin polymerization, followed by a Cdk5 kinase assay with/without the addition of P5. […] Cdk5/P25 activity, however, was inhibited 60% after pre-incubation at the lower P5 concentration (0.45 μM) (FIG. 9B, lane 4 compared with lane 1) (p<0.01). […] On the other hand, P25, lacking the P10 domain, fails to bind these proteins, and P5 readily binds with Cdk5 in the Cdk5/P25 complex to inhibit activity.

Chain of Cdk5/P35 (Homo sapiens, UniProt Q00535) (Q00535 whole entry, species assumed): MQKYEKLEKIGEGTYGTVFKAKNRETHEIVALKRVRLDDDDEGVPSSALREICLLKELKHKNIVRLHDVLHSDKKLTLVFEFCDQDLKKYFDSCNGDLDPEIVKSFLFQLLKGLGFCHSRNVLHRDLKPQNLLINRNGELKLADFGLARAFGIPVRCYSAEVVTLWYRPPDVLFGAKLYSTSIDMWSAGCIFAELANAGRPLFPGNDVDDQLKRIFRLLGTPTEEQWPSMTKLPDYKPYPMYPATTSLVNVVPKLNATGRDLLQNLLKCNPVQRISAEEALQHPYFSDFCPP
T1 sequence (Q03114 whole entry): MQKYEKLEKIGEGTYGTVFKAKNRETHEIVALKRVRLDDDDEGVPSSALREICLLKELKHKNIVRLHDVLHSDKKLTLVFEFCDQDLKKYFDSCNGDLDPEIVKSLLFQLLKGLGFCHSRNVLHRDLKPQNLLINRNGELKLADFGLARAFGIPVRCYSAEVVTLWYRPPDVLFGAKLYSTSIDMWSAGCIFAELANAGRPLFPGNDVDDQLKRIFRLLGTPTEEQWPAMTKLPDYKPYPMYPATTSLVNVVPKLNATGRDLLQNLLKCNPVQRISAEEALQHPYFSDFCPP
T1 sequence (P61810 2-307 partner): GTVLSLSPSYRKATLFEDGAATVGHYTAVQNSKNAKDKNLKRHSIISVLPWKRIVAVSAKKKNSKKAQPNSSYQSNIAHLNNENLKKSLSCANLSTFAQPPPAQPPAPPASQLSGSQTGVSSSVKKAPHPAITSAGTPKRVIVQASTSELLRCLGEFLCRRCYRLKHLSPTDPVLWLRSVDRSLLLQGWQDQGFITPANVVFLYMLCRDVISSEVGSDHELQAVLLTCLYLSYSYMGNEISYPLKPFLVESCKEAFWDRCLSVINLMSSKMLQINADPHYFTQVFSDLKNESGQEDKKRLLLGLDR

## P5: 24 residue peptide derived from Cdk5 activator P35 (K254-A277 of SEQ ID NO: 16); Cdk5 inhibitory peptide (KEAFWDRCLSVINLMSSKMLQINA; listed as Homo sapiens)
[1]
  Effect on endogenous Cdk5/P35 activity: no reduction in activity
[2]
  Inhibition of Cdk5 activity in neurons co-infected with Cdk5/P35: 10-20%
[3]
  Aβ-induced apoptosis (TUNEL): virtually all P5 transfected cells were protected from Aβ-induced apoptosis; also recorded: clearly inhibited Aβ-mediated neuronal apoptosis
[4]; 0.45 μM P5
  Inhibition of Cdk5/P35 activity pre-incubated with polymerized tubulin: no effect on pre-incubated Cdk5/P35 activity; also recorded: not inhibited; also recorded: had no effect on Cdk5/P35
  Inhibition of Cdk5/P35 activity with unpolymerized tubulin (no pre-incubation): P5 inhibits both kinases equally; also recorded: inhibited both Cdk5/P35 and Cdk5/P25 activities equally; also recorded: inhibited both complexes equally
[4]; 0.9 μM P5
  Inhibition of Cdk5/P35 activity pre-incubated with polymerized tubulin: both kinase complexes are inhibited equally; also recorded: both Cdk5 complexes were inhibited
